According to patent publication US20240270821A1, “GIP/GLP1/GCG TRI-RECEPTOR AGONISTS AND USES THEREOF” (priority 2023, published 2024):
Positions count from the first letter of the chain named.

B1: Example 494 (peptide)
chain: YXQGTXTSDXSIXLDXKAQXXFIEYLLEGGPSSGEPPPEEG
modifications: synthetic construct; SITE 2: note = 2-Aminoisobutyric Acid; SITE 6: note = alpha-methyl-2-fluoro-L-phenylalanine; SITE 10: note = 3-(4-Pyridyl)-L-alanine; SITE 13: note = alpha-methyl-leucine; SITE 16: note = L-ornithine; SITE 17: note = Lysine is chemically modified through conjugation of the epsil
B2: Example 465 (peptide)
chain: YXQGTXTSDXXILLDKKAQXAFIEYLEEGGPSSGAPPPE
modifications: synthetic construct; SITE 2: note = 2-Aminoisobutyric Acid; SITE 6: note = alpha-methyl-2-fluoro-L-phenylalanine; SITE 10: note = 3-(3-Pyridyl)-L-alanine; SITE 11: note = alpha-methyl-L-serine; SITE 17: note = Lysine is chemically modified through conjugation of the epsilon-amino group of the Lysine
B3: Example 487 (peptide)
chain: B2 chain with X11S, L13X, A35E
modifications: synthetic construct; SITE 2: note = 2-Aminoisobutyric Acid; SITE 6: note = alpha-methyl-2-fluoro-L-phenylalanine; SITE 10: note = 3-(4-Pyridyl)-L-alanine; SITE 13: note = alpha-methyl-leucine; SITE 17: note = Lysine is chemically modified through conjugation of the epsilon-amino group of the Lysine
B4: Example 469 (peptide)
chain: B2 chain with X10Y, A35E
modifications: synthetic construct; SITE 2: note = 2-Aminoisobutyric Acid; SITE 6: note = alpha-methyl-2-fluoro-L-phenylalanine; SITE 11: note = alpha-methyl-L-serine; SITE 17: note = Lysine is chemically modified through conjugation of the epsilon-amino group of the Lysine side chain with (2-[2-(2-Amino-ethoxy)-e)
B5: Example 467 (peptide)
chain: B2 chain with X10Y, I12E
modifications: synthetic construct; SITE 2: note = 2-Aminoisobutyric Acid; SITE 6: note = alpha-methyl-2-fluoro-L-phenylalanine; SITE 11: note = alpha-methyl-L-serine; SITE 17: note = Lysine is chemically modified through conjugation of the epsilon-amino group of the Lysine side chain with (2-[2-(2-Amino-ethoxy)-e)
B6: Example 468 (peptide)
chain: B2 chain with X10Y
modifications: synthetic construct; SITE 2: note = 2-Aminoisobutyric Acid; SITE 6: note = alpha-methyl-2-fluoro-L-phenylalanine; SITE 11: note = alpha-methyl-L-serine; SITE 17: note = Lysine is chemically modified through conjugation of the epsilon-amino group of the Lysine side chain with (2-[2-(2-Amino-ethoxy)-e)
B7: Example 495 (peptide)
chain: B2 chain with X11S, L13X
modifications: synthetic construct; SITE 2: note = 2-Aminoisobutyric Acid; SITE 6: note = alpha-methyl-2-fluoro-L-phenylalanine; SITE 10: note = 4-nitro-L-phenylalanine; SITE 13: note = alpha-methyl-leucine; SITE 17: note = Lysine is chemically modified through conjugation of the epsilon-amino group of the Lysine
B8: Example 473 (peptide)
chain: YXQGTXTSDXXIXLDXKAQXNFIEXLIEGGPSSGEPEPSEG
modifications: synthetic construct; SITE 2: note = 2-Aminoisobutyric Acid; SITE 6: note = alpha-methyl-2-fluoro-L-phenylalanine; SITE 10: note = 3-(4-Pyridyl)-L-alanine; SITE 11: note = alpha-methyl-L-serine; SITE 13: note = alpha-methyl-leucine; SITE 16: note = L-ornithine; SITE 17: note = Lysine is chemically mo
B9: Example 475 (peptide)
chain: B1 chain with Y25X, L27I
modifications: synthetic construct; SITE 2: note = 2-Aminoisobutyric Acid; SITE 6: note = alpha-methyl-2-fluoro-L-phenylalanine; SITE 10: note = 3-(4-Pyridyl)-L-alanine; SITE 13: note = alpha-methyl-leucine; SITE 16: note = L-ornithine; SITE 17: note = Lysine is chemically modified through conjugation of the epsil
B10: Example 481 (peptide)
chain: B8 chain with N21X
modifications: synthetic construct; SITE 2: note = 2-Aminoisobutyric Acid; SITE 6: note = alpha-methyl-2-fluoro-L-phenylalanine; SITE 10: note = 3-(4-Pyridyl)-L-alanine; SITE 11: note = alpha-methyl-L-serine; SITE 13: note = alpha-methyl-leucine; SITE 16: note = L-ornithine; SITE 17: note = Lysine is chemically mo
B11: Example 489 (peptide)
chain: B1 chain with L27I, E39S
modifications: synthetic construct; SITE 2: note = 2-Aminoisobutyric Acid; SITE 6: note = alpha-methyl-2-fluoro-L-phenylalanine; SITE 10: note = 3-(4-Pyridyl)-L-alanine; SITE 13: note = alpha-methyl-leucine; SITE 16: note = L-ornithine; SITE 17: note = Lysine is chemically modified through conjugation of the epsil
B12: Example 502 (peptide)
chain: B1 chain with S11X, L27I, E39S, E40G, G41T
modifications: synthetic construct; SITE 2: note = 2-Aminoisobutyric Acid; SITE 6: note = alpha-methyl-2-fluoro-L-phenylalanine; SITE 10: note = 3-(4-Pyridyl)-L-alanine; SITE 11: note = alpha-methyl-L-serine; SITE 13: note = alpha-methyl-leucine; SITE 16: note = L-ornithine; SITE 17: note = Lysine is chemically mo

Target: hGLP-1R (Homo sapiens, UniProt P43220)
Assay: cell-based or functional assay

hGLP-1R, sequence (P43220 24-463): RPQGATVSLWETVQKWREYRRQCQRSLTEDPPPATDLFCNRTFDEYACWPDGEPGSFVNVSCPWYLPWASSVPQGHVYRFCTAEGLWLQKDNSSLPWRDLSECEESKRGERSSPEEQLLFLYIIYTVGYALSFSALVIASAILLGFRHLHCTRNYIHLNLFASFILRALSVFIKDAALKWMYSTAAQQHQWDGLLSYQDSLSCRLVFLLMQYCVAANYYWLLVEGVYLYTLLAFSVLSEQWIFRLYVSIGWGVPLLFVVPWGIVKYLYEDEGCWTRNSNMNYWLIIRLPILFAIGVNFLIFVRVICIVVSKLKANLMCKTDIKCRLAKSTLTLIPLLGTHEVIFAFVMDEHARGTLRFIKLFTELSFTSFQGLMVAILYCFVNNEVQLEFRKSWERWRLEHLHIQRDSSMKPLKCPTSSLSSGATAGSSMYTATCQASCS

Row | Binder | Relative cAMP EC50, nM (0.1% casein) [nM] | cAMP Rel EC50 (receptor-expressing HEK-293 cells, 1% HSA) [nM] | Relative cAMP EC50 [nM] | cAMP Rel EC50 (1% HSA) [nM]
1 | B1 | 0.211 | 19.9 | – | –
2 | B2 | 0.575 | 56.3 | – | –
3 | B3 | 0.639 | 27.7 | – | –
4 | B4 | 0.562 | 61.7 | – | –
5 | B5 | 0.358 | 36.4 | – | –
6 | B6 | 0.466 | 30.7 | – | –
7 | B7 | 0.274 | 53.8 | – | –
8 | B8 | 0.173 | 11.4 | – | –
9 | B9 | 0.254 | 18.6 | – | –
10 | B10 | 0.204 | 14.2 | – | –
11 | B11 | 0.172 | 11.8 | – | –
12 | B12 | – | – | 0.326 | 30.6

Target: T1, human GIP receptor (human) (UniProt P48546)
T1 sequence (looked up): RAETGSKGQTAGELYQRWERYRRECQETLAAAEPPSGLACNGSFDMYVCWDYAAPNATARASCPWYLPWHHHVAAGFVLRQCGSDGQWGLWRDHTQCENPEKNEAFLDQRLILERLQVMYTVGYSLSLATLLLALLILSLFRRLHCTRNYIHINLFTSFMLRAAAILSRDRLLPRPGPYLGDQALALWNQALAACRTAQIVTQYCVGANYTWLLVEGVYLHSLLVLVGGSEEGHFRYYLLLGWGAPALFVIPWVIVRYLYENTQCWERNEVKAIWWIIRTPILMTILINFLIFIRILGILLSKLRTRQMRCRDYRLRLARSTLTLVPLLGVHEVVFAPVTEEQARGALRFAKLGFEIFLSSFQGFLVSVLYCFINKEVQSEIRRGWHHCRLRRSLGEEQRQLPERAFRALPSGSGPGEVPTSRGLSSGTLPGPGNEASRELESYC
Assay: cell-based or functional assay

Row | Binder | Relative cAMP EC50, nM (0.1% casein) [nM] | cAMP Rel EC50 (receptor-expressing HEK-293 cells, 1% HSA) [nM] | Relative cAMP EC50 [nM] | cAMP Rel EC50 (1% HSA) [nM]
13 | B1 | 0.014 | 1.08 | – | –
14 | B2 | 0.148 | 44.6 | – | –
15 | B3 | 0.0286 | 2.26 | – | –
16 | B4 | 0.031 | 4.24 | – | –
17 | B5 | 0.0855 | 10.7 | – | –
18 | B6 | 0.0222 | 4.76 | – | –
19 | B7 | 0.0361 | 5.74 | – | –
20 | B8 | 0.0101 | 1.11 | – | –
21 | B9 | 0.0173 | 1.85 | – | –
22 | B10 | 0.0164 | 1.19 | – | –
23 | B11 | 0.0121 | 1.25 | – | –
24 | B12 | – | – | 0.0337 | 2.42

Target: human glucagon receptor (human) (UniProt P47871)
Assay: cell-based or functional assay

human glucagon receptor (human), sequence (P47871 26-477): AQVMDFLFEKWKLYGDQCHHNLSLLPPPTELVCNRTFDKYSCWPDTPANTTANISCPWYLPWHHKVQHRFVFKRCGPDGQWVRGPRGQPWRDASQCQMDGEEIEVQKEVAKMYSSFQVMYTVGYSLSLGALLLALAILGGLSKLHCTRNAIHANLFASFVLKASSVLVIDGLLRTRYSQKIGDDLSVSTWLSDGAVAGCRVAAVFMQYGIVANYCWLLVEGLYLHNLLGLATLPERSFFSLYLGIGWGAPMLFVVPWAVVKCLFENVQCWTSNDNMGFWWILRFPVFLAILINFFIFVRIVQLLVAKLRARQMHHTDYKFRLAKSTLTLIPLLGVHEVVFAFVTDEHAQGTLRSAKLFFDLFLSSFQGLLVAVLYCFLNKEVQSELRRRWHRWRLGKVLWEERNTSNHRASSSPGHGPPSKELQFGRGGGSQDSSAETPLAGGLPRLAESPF

Row | Binder | Relative cAMP EC50, nM (0.1% casein) [nM] | cAMP Rel EC50 (receptor-expressing HEK-293 cells, 1% HSA) [nM] | Relative cAMP EC50 [nM] | cAMP Rel EC50 (1% HSA) [nM]
25 | B1 | 1.26 | 333 | – | –
26 | B2 | 1.5 | 233 | – | –
27 | B3 | 5.36 | 477 | – | –
28 | B4 | 1.34 | 155 | – | –
29 | B5 | 9.34 | 850 | – | –
30 | B6 | 1.95 | 195 | – | –
31 | B7 | 1.75 | 205 | – | –
32 | B8 | 2.72 | 311 | – | –
33 | B9 | 2.24 | 254 | – | –
34 | B10 | 1.22 | 100 | – | –
35 | B11 | 2.31 | 523 | – | –
36 | B12 | – | – | 3.8 | 395
